{"source": "patent US20240383996A1", "about": "(SHANGHAI HENLIUS BIOTECH, published 2024)", "binders": {"B1": {"name": "c5E10 chimeric bivalent antibody (llama VHH clone 5E10 fused to human IgG1 Fc) (antibody, V domains shown)", "VH": "QVKLEESGGGSVQSGGSLRLACSASGPLGYPSIAWFRQVTGKDQEFVAGIAWSGGDTYYADSVKGRFAISRDTDRNTVELQMNNLKPEDTAVYYCAADTVVHYMGRHDIRDREEYDHWGQGTQVTVSS", "notes": "Bivalent VHH-Fc, human IgG1 Fc; also called c5E10-Fc; c5E10-bi"}, "B2": {"name": "5E10 llama VHH (VHH)", "VHH": "B1 VH with Q120P", "notes": "VHH secreted into the culture supernatant from phagemid pADL-23c; also called c5E10 VHH"}, "B3": {"name": "Ipilimumab (anti-CTLA4 antibody) (antibody, V domains shown)", "VH": "QVQLVESGGGVVQPGRSLRLSCAASGFTFSSYTMHWVRQAPGKGLEWVTFISYDGNNKYYADSVKGRFTISRDNSKNTLYLQMNSLRAEDTAIYYCARTGWLGPFDYWGQGTLVTVSS", "VL": "not shown"}}, "key": {"Fc-fused mouse OX40 ECD": {"target": "T1, Fc-fused mouse OX40 ECD (mouse, UniProt P47741 20-211)", "T1 construct": "extracellular domain; also called recombinant mouse OX40 ECD; not shown: Fc", "T1 sequence (looked up)": "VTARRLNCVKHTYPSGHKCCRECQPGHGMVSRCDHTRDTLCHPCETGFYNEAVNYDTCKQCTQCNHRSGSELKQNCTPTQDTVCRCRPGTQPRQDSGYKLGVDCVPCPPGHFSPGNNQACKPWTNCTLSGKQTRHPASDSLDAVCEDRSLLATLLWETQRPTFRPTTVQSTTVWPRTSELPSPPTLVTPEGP", "experiment": "ELISA: plate coated with Fc-fused mouse OX40 ECD, biotin-labeled c5E10, HRP-avidin, OD450", "experimental": "The protein was expressed in ExpiCHO cells, and purified by Protein A affinity chromatography. […] Briefly, 1 μg/ml of Fc-fused human or mouse OX40 ECD was coated in a 96-well high binding plate at 4° C. overnight."}, "[1]": {"target": "T2, Human CTLA4 expressed on transfected CHO or Jurkat cells (human, UniProt P16410 36-222)", "T2 construct": "also called human CTLA4/CHO; human CTLA4/Jurkat", "T2 sequence": "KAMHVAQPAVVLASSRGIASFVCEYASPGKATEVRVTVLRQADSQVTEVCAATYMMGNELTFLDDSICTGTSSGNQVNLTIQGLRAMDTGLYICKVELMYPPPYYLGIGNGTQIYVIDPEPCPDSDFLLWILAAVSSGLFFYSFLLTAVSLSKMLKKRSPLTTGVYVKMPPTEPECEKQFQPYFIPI", "experiment": "flow cytometry, whole cell binding to human CTLA4-expressing CHO cells, Alexa Fluor488 anti-human IgG Fc, Geo MFI"}, "[2]": {"target": "T3, Recombinant human OX40 extracellular domain fused to human IgG1 Fc (human, UniProt P43489 29-214)", "T3 construct": "Produced in-house; also called OX40 ECD-Fc; human OX40 ECD-Fc; not shown: human IgG1 Fc", "T3 sequence": "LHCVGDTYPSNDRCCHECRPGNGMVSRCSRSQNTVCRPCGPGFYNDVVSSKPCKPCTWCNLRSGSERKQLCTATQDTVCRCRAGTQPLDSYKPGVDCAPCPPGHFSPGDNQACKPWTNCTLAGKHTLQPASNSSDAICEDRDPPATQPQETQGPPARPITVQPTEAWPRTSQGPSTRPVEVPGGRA", "experiment": "ELISA of VHH supernatants on plates pre-coated with human OX40 ECD-Fc or human OX40 ECD-His"}, "[3]": {"target": "T4, Human OX40 expressed on transfected Jurkat or CHO cells (human, UniProt P43489 29-277)", "T4 construct": "also called human OX40/Jurkat; human OX40/CHO", "T4 sequence": "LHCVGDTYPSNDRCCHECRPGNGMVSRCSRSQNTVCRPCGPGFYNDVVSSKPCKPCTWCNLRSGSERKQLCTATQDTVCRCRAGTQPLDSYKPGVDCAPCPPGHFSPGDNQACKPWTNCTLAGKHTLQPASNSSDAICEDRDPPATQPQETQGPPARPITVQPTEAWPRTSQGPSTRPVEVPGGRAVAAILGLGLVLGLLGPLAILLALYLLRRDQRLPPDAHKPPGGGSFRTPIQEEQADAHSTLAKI", "experiment": "flow cytometry, whole cell binding to human OX40-expressing Jurkat cells, Alexa Fluor488 anti-human IgG Fc, Geo MFI"}}, "note": "Numbering of substitutions follows the chain as printed."}
{"binder": "B1", "values": [{"measurement": "binding result", "setting": "Fc-fused mouse OX40 ECD", "result": "no binding"}, {"measurement": "binding result", "setting": "[1]", "result": "no binding"}]}
{"binder": "B2", "values": [{"measurement": "binding result", "setting": "[2]", "result": "binds"}]}
{"binder": "B3", "values": [{"measurement": "binding result", "setting": "[3]", "result": "no binding"}]}
